Reference: the supplement of paper PMC10065799, “High-throughput profiling of sequence recognition by tyrosine kinases and SH2 domains using bacterial peptide display” (eLife, 2023)

Key:
AncSZ = assay: phosphorylation enrichment, bacterial display (enrichment ratio); higher = better substrate or ligand; peptides without Tyr show the background
EPHB1 = EPHB1 (UniProt P54762); assay: as above
EPHB2 = EPHB2 (UniProt P29323); assay: as above
FGFR1 = FGFR1 (UniProt P11362); assay: as above
FGFR3 = FGFR3 (UniProt P22607); assay: as above
Chain of FGFR3 (P22607 whole entry, looked up): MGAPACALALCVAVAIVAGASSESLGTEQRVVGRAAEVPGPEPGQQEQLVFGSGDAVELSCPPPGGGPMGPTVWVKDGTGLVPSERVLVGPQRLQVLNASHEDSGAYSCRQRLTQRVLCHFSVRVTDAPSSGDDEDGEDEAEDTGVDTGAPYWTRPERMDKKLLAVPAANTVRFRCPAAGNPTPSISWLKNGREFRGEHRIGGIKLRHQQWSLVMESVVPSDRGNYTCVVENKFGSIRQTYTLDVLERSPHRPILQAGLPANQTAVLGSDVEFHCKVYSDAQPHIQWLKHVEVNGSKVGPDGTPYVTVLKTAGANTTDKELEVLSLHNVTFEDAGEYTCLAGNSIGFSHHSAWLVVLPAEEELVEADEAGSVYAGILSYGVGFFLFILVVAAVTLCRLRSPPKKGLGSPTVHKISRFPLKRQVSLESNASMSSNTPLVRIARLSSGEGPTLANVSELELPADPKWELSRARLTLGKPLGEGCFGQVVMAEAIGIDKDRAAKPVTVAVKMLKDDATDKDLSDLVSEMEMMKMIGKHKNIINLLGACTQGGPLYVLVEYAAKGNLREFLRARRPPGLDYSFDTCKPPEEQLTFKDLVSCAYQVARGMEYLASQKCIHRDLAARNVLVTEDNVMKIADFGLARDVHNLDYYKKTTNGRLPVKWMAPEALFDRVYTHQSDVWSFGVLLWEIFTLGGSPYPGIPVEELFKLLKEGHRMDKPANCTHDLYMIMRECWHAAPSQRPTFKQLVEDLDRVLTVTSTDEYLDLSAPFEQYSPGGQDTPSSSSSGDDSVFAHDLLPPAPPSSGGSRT

Fer (mouse) = assay: as above
Fes = Fes (UniProt P07332); assay: as above
Chain of Fes (P07332 whole entry, looked up): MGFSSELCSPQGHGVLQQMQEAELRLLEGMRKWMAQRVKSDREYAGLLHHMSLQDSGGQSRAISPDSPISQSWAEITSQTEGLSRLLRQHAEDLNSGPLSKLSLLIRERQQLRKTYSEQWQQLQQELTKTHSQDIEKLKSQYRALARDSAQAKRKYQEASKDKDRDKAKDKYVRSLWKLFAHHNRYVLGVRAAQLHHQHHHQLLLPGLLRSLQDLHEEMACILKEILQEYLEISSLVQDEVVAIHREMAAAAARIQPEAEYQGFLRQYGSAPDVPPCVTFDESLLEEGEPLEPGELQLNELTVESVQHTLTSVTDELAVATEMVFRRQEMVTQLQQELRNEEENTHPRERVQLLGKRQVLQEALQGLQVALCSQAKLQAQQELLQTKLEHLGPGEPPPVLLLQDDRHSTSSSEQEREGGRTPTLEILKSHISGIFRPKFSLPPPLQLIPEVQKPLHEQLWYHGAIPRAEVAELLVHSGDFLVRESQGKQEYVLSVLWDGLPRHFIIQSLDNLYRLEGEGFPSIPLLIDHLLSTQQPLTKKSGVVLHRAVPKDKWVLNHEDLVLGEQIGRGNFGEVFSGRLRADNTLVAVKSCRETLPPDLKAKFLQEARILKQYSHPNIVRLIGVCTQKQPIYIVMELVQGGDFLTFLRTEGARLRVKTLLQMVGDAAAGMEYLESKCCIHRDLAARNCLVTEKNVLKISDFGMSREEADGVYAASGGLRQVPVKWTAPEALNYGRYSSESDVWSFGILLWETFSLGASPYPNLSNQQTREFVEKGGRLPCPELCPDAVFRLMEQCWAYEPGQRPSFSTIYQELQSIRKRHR

Fyn = Fyn (UniProt P06241); assay: as above
Chain of Fyn (P06241 whole entry, looked up): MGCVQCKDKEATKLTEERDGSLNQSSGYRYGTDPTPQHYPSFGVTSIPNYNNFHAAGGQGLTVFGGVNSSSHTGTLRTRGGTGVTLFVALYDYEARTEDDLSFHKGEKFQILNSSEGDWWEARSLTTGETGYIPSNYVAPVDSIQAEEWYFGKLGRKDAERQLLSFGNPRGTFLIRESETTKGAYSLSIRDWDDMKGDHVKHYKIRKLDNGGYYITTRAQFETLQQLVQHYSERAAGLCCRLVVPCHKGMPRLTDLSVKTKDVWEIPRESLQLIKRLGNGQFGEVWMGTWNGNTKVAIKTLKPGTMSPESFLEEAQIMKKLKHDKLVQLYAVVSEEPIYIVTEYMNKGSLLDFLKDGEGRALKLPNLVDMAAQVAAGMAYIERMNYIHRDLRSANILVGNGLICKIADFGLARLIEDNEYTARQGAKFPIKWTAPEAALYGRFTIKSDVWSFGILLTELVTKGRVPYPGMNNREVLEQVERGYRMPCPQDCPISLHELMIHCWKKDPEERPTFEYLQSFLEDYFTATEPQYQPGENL

Hck = Hck (UniProt P08631); assay: as above
Chain of Hck (P08631 whole entry, looked up): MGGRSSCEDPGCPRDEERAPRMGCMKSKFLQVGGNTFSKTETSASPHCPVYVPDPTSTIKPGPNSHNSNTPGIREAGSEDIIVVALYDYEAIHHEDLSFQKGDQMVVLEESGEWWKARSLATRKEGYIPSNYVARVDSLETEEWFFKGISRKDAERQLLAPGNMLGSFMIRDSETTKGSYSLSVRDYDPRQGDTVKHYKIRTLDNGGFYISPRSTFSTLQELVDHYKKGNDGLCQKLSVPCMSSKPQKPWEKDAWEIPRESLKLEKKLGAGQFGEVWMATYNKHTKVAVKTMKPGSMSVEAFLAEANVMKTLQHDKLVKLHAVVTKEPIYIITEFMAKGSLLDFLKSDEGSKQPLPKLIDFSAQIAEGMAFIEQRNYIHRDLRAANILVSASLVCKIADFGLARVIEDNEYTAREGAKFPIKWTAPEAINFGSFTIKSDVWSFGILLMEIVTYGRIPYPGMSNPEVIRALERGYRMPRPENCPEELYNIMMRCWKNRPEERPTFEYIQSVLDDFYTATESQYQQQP

Jak2 = Jak2 (UniProt O60674); assay: as above
Chain of Jak2 (O60674 whole entry, looked up): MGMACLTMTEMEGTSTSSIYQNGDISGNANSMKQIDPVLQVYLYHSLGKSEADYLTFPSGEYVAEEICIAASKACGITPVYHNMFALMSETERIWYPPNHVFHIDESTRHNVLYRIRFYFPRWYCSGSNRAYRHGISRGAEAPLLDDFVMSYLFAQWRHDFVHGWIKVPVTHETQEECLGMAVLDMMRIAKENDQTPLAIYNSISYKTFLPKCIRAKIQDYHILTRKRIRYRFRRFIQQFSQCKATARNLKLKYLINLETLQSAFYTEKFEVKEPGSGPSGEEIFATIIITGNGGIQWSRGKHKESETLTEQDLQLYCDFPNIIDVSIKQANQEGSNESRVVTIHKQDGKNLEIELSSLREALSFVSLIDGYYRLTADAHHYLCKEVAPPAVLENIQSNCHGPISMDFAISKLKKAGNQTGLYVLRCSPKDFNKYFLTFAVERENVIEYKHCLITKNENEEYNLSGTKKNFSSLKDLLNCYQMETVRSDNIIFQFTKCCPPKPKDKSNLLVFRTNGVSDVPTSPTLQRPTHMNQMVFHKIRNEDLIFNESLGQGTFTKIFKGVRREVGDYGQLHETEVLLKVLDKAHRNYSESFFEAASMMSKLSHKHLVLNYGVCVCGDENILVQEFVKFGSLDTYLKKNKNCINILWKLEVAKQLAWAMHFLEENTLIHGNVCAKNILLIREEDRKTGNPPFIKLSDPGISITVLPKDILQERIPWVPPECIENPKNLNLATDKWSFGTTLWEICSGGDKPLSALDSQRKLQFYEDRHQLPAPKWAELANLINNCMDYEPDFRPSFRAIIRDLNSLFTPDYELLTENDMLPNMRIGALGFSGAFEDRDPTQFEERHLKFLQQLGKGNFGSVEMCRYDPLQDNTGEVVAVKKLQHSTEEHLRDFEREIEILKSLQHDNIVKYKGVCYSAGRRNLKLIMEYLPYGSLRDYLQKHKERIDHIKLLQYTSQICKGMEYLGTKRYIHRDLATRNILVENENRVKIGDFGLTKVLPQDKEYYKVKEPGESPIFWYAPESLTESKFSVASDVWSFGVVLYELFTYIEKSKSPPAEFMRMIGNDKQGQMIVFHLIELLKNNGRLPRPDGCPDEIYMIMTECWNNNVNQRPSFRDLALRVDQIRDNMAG

MERTK = MERTK (UniProt Q12866); assay: as above
Chain of MERTK (Q12866 whole entry, looked up): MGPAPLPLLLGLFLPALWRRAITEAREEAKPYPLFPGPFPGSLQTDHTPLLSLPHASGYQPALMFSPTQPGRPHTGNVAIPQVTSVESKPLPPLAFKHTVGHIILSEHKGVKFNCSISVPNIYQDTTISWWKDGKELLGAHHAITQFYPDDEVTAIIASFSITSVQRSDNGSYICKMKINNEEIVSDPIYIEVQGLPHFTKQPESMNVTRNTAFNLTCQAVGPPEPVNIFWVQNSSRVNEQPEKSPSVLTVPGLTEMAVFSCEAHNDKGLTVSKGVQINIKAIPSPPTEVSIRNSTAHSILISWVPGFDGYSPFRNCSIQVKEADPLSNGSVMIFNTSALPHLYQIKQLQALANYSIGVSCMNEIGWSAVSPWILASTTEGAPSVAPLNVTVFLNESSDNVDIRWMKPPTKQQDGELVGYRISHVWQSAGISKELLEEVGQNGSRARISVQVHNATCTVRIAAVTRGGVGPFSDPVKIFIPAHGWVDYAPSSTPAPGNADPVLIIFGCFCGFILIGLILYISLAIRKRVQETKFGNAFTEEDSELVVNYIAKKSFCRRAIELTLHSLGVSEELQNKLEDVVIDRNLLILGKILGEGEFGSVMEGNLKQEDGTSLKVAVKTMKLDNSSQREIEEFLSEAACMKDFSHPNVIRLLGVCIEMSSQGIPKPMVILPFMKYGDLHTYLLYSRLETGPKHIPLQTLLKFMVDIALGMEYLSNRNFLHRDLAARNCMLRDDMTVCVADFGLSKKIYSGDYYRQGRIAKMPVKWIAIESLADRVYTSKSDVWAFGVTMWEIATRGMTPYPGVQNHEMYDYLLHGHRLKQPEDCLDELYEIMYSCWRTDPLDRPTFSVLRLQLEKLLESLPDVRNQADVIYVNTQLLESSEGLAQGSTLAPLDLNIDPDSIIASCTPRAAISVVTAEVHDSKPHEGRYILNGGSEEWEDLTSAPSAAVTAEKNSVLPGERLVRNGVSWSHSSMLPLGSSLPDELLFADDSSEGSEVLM

c-Abl (mouse) = assay: as above
c-Src = assay: as above
Grb2 SH2 = Grb2 SH2 (UniProt P62993); assay: SH2 binding enrichment of the phosphorylated peptide, bacterial display (enrichment ratio); higher = better substrate or ligand; peptides without Tyr show the background
Chain of Grb2 SH2 (P62993 whole entry, looked up): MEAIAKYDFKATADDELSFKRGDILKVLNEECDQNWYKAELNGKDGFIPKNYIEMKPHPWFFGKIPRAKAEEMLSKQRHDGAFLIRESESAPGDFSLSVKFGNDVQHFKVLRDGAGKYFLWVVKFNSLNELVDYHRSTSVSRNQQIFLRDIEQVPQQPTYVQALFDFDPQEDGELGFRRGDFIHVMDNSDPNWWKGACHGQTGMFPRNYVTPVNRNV

SHP2-C SH2 = assay: as above
c-Src SH2 = assay: as above
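Wherever SH2 binding enrichment of the phosphorylated peptide, bacterial display is given: peptide library displayed on the E. coli surface as eCPX fusions, selected cells deep-sequenced, score is each peptide's frequency after selection divided by its frequency in the input.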
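Wherever phosphorylation enrichment, bacterial display is given: 11-residue human phosphosite peptides and single-mutation variants displayed on the E. coli surface, counted by deep sequencing, each peptide's frequency after selection divided by its frequency in the unselected input library; frequency after pTyr selection over input frequency; kinase dosed for 20-30% of maximal phosphorylation in three min.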

Sequence | phosphorylation enrichment (AncSZ) | phosphorylation enrichment (EPHB1) | phosphorylation enrichment (EPHB2) | phosphorylation enrichment (FGFR1) | phosphorylation enrichment (FGFR3) | phosphorylation enrichment (Fer (mouse)) | phosphorylation enrichment (Fes) | phosphorylation enrichment (Fyn) | phosphorylation enrichment (Hck) | phosphorylation enrichment (Jak2) | phosphorylation enrichment (MERTK) | phosphorylation enrichment (c-Abl (mouse)) | phosphorylation enrichment (c-Src) | SH2 binding enrichment (Grb2 SH2) | SH2 binding enrichment (SHP2-C SH2) | SH2 binding enrichment (c-Src SH2)
AAGGRYYGLVG [HARS1_Y363_D364Y] | 0.56 | 0.347 | 0.441 | 0.432 | 0.451 | 0.45 | 0.601 | 0.618 | 0.715 | 0.49 | 3.95 | 0.671 | 0.867 | 0.938 | 0.595 | 1.79
AAILGYCHGEA [XPC_Y669_R671H] | 0.975 | 0.581 | 0.75 | 0.523 | 0.733 | 0.474 | 1.03 | 0.535 | 0.53 | 0.725 | 0.827 | 0.7 | 0.373 | 0.855 | 0.701 | 0.549
AAVDTYCRHNF [HLA-DRB1_Y107_YF] | 0.794 | 0.562 | 0.516 | 0.426 | 0.715 | 0.589 | 1.04 | 0.415 | 0.501 | 0.88 | 0.497 | 0.755 | 0.548 | 0.912 | 0.593 | 0.529
ADAGMYGVLPW [PLP1_Y207_R205G] | 0.803 | 1.76 | 6.53 | 0.549 | 0.529 | 2.39 | 0.845 | 9.65 | 9.1 | 0.637 | 6.35 | 3.07 | 6.61 | 0.726 | 0.74 | 0.435
ADARMYGDLPW [PLP1_Y207_V209D] | 0.766 | 0.65 | 0.506 | 0.6 | 0.7 | 1.43 | 0.794 | 3.54 | 3.49 | 0.71 | 0.52 | 0.586 | 2.74 | 0.868 | 1.09 | 0.573
ADFFDYGRGLS [KHDRBS3_Y304_H306R_YF] | 0.808 | 0.426 | 0.522 | 0.414 | 0.702 | 0.4 | 0.746 | 0.518 | 0.421 | 0.798 | 0.369 | 0.59 | 0.521 | 0.82 | 0.554 | 0.625
ADTETYLLEKS [MYH7_Y266_I263T] | 1.12 | 0.449 | 0.586 | 0.57 | 0.745 | 0.607 | 1.1 | 0.603 | 0.512 | 1.01 | 0.385 | 0.709 | 0.551 | 0.859 | 0.785 | 0.56
AEDKPYAELWT [MPI_Y46_M51T] | 1.17 | 0.689 | 0.737 | 1.01 | 1 | 7.1 | 1.25 | 1.3 | 1.13 | 0.958 | 0.994 | 0.772 | 2.54 | 0.929 | 1.11 | 2.62
AFPGEYIPTVF [RAC1_Y32] | 0.776 | 0.444 | 0.476 | 0.618 | 0.617 | 0.509 | 0.828 | 0.381 | 0.492 | 0.924 | 0.474 | 0.689 | 0.476 | 1.05 | 0.723 | 0.544
AFRHGYFDEEM [PLEC_Y2971_R2969H_YF] | 1.13 | 0.498 | 0.59 | 0.554 | 0.676 | 0.593 | 1.12 | 0.487 | 0.456 | 1.3 | 0.478 | 0.806 | 0.412 | 0.832 | 0.614 | 0.606
AGAKTYKMSMA [CPS1_Y309] | 0.389 | 0.328 | 0.264 | 0.309 | 0.426 | 0.406 | 0.405 | 0.402 | 0.374 | 0.527 | 0.364 | 0.383 | 0.399 | 0.688 | 0.819 | 0.586
AGQEDCDRLRP [CDC42_Y64_Y64C] | 0.784 | 0.552 | 0.444 | 0.476 | 0.586 | 0.439 | 0.882 | 0.436 | 0.424 | 0.682 | 0.364 | 0.609 | 0.427 | 1.07 | 0.945 | 0.548
AGQEKYSAMRD [HRAS_Y64_E63K] | 0.574 | 0.318 | 0.424 | 0.324 | 0.498 | 0.37 | 0.837 | 0.427 | 0.423 | 0.618 | 0.312 | 0.604 | 0.416 | 0.703 | 0.639 | 0.496
AHEALYLEADL [CENPF_Y1920_E1915A] | 1.82 | 0.781 | 0.802 | 2.2 | 2.09 | 1.12 | 1.29 | 0.692 | 0.736 | 1.05 | 1.03 | 1.09 | 0.855 | 0.577 | 0.386 | 0.399
AIFEGYALPHA [ACTC1_Y171_P166A_YF] | 0.732 | 0.452 | 0.401 | 0.549 | 0.535 | 0.605 | 0.801 | 0.472 | 0.43 | 0.539 | 0.726 | 1.2 | 0.414 | 0.932 | 0.518 | 5.11
AKIDGYITSFR | 0.795 | 0.427 | 0.411 | 0.513 | 0.573 | 0.468 | 0.957 | 0.439 | 0.381 | 0.535 | 0.468 | 0.573 | 0.407 | 1.02 | 0.936 | 0.625
AKRKGYDMQVD [NEB_Y2770_R2773Q] | 0.473 | 0.257 | 0.366 | 0.311 | 0.315 | 0.328 | 0.395 | 0.327 | 0.363 | 0.377 | 0.301 | 0.372 | 0.404 | 0.728 | 0.493 | 0.533

Sequence | phosphorylation enrichment (AncSZ) | phosphorylation enrichment (EPHB1) | phosphorylation enrichment (EPHB2) | phosphorylation enrichment (FGFR1) | phosphorylation enrichment (FGFR3) | phosphorylation enrichment (Fer (mouse)) | phosphorylation enrichment (Fes) | phosphorylation enrichment (Fyn) | phosphorylation enrichment (Hck) | phosphorylation enrichment (Jak2) | phosphorylation enrichment (MERTK) | phosphorylation enrichment (c-Abl (mouse)) | phosphorylation enrichment (c-Src) | SH2 binding enrichment (Grb2 SH2) | SH2 binding enrichment (SHP2-C SH2) | SH2 binding enrichment (c-Src SH2)
ALAHKHHGGGG [HBB_Y146_Y146H] | 0.588 | 0.372 | 0.391 | 0.355 | 0.539 | 0.419 | 0.593 | 0.414 | 0.419 | 0.558 | 0.416 | 0.569 | 0.505 | 0.771 | 0.673 | 0.586
ALCHFYKLNII [ETV6_Y402_R399C_YF] | 1.19 | 0.607 | 0.732 | 0.479 | 0.806 | 0.692 | 1.42 | 0.537 | 0.544 | 1.26 | 0.499 | 0.833 | 0.581 | 1.12 | 1.06 | 0.915
ALECLYRREKR [TEKT5_Y195_H196R] | 0.775 | 0.466 | 0.534 | 0.584 | 0.482 | 0.435 | 1.85 | 0.539 | 0.515 | 0.788 | 0.621 | 0.522 | 0.66 | 0.769 | 0.551 | 0.268
ALEQKYWALGQ [MAP1A_Y1555] | 0.768 | 0.53 | 0.492 | 0.674 | 0.665 | 0.436 | 0.735 | 1.39 | 0.875 | 0.886 | 1.3 | 0.537 | 1.82 | 0.867 | 0.662 | 1.49
ALHHPYGCDVE [ABL2_Y80_R78H] | 0.803 | 0.606 | 0.621 | 0.441 | 0.726 | 0.447 | 0.998 | 0.44 | 0.541 | 0.708 | 0.44 | 0.681 | 0.669 | 1.03 | 0.771 | 0.773
ALPVFYAATIA [SLC20A2_Y187] | 0.823 | 0.905 | 0.756 | 0.394 | 0.651 | 1.2 | 1.03 | 0.544 | 0.956 | 0.886 | 2.96 | 0.831 | 0.598 | 0.793 | 0.889 | 0.669
ALSDGYWVVSN [TPP1_Y459] | 1.19 | 0.475 | 0.518 | 1.32 | 1.1 | 0.398 | 1.01 | 0.44 | 0.635 | 1.79 | 0.372 | 0.71 | 0.516 | 0.823 | 0.879 | 9.23
ALTDNYMFVVI [HAGH_Y61_L64V_YF] | 1.68 | 11.5 | 8.6 | 8.71 | 6.54 | 5.63 | 1.61 | 0.653 | 0.574 | 1.3 | 1.52 | 0.99 | 0.516 | 0.679 | 0.568 | 0.388
AMGAVYQAAAL [HYOU1_Y421] | 0.686 | 0.534 | 0.512 | 0.58 | 0.612 | 1.63 | 0.615 | 1.91 | 3.19 | 0.566 | 0.431 | 0.98 | 2.81 | 0.79 | 0.503 | 1.08
ANNEFYFRVCA | 1.28 | 0.563 | 0.548 | 0.445 | 0.824 | 0.536 | 1.43 | 0.483 | 0.516 | 1.39 | 0.44 | 0.923 | 0.412 | 0.716 | 0.567 | 0.37
ANNEYYFQVCA | 2.03 | 0.957 | 0.768 | 8.62 | 7.38 | 0.614 | 1.5 | 0.607 | 0.706 | 1.68 | 0.73 | 1.01 | 0.892 | 0.61 | 0.491 | 0.367
APEVIYATPGA [ABLtide_2014] | 2.58 | 3.19 | 8.54 | 0.879 | 0.868 | 11.6 | 1.14 | 8.17 | 9.6 | 0.839 | 8.2 | 34.4 | 5.95 | 0.691 | 0.672 | 0.439
APQFTYAQGGQ [FLNA_Y1763_YF] | 0.645 | 0.372 | 0.739 | 0.585 | 0.628 | 0.304 | 0.706 | 0.574 | 0.415 | 0.42 | 0.26 | 0.421 | 0.538 | 0.705 | 0.611 | 0.546
ARMTNCGLPRF [TSPAN12_Y138_Y138C_YF] | 0.58 | 0.292 | 0.421 | 0.387 | 0.453 | 0.352 | 0.689 | 0.322 | 0.358 | 0.492 | 0.368 | 0.591 | 0.323 | 1.06 | 1 | 0.74
ARSMEYLAEQK [MST1R_Y1198] | 0.755 | 0.488 | 0.493 | 0.471 | 0.622 | 0.403 | 0.839 | 0.585 | 0.622 | 1.08 | 0.548 | 0.655 | 0.474 | 0.819 | 0.611 | 0.384
ASLEAYCKHKF [RXRA_Y403_YF] | 0.83 | 0.572 | 0.66 | 0.654 | 0.915 | 0.585 | 1.07 | 0.468 | 0.519 | 0.697 | 0.556 | 0.687 | 0.497 | 0.963 | 0.868 | 0.767
QNTGGYFDLFG [PTPN11_Y62_D61G_YF] |  |  |  |  |  |  |  |  |  | 1.26 |  | 0.27 |  |  |  | 
